{"source": "patent US20040213795A1", "about": "(Pfizer, published 2004)", "binders": {"B1": {"name": "PD1-28 IgG (antibody, V domains shown)", "VH": "EVQLVQSGAEVKKPGASVKVSCKASGYRFTSYGISWVRQAPGQGLEWMGWISAYNGNTNYAQKLQGRVTMTTDTSTNTAYMELRSLRSDDTAVYYCARDADYSSGSGYWGQGTLVTVSS", "VL": "SYELTQPPSVSVSPGQTARITCSGDALPKQYAYWYQQKPGQAPVMVIYKDTERPSGIPERFSGSSSGTKVTLTISGVQAEDEADYYCQSADNSITYRVFGGGTKVTVL"}, "B2": {"name": "PD1-28 scFv (scFv, V domains shown)", "VH": "B1 VH", "VL": "B1 VL", "notes": "not shown: scFv linker, order of the domains and vector tags (pCANTAB6 phagemid library)"}, "B3": {"name": "PD1-35 IgG (antibody, V domains shown)", "VH": "QVQLQESGPGLVKPSQTLSLTCTVSGGSISSGAYYWSWIRQHPGKGLEWIGYIYYNGNTYYNPSLRSLVTISVDASKNQFSLKLSSVTAADTAVYYCARASDYVWGGYRYMDAFDIWGRGTLITVSS", "VL": "not shown", "notes": "also called PD-35"}, "B4": {"name": "PD1-33 scFv (scFv, V domains shown)", "VH": "QVQLVQSGAEVKKPGASVRVSCKASGYTLTSYYIHWVRQAPGQGLEWMGIINPRGATISYAQKFQGRVTMTRDTSTSTVYMELRNLKSEDTALYYCATAGIYGFDFDYWGRGTLVTVSS", "VL": "QSALTQPASVSGSPGQSITISCTGTSNDVGGYNYVSWYQHHPGKAPKLIIYDVTNRPSGVSDRFSGSKSGNTASLTISGLLAEDEGDYYCSSYTIVTNFEVLFGGGTKLTV"}, "B5": {"name": "PD1-33 IgG (antibody, V domains shown)", "VH": "B4 VH", "VL": "B4 VL"}, "B6": {"name": "PD1-17 scFv (scFv, V domains shown)", "VH": "QVQLQESGPGVVKPSGTLSLTCAISGGSIGSGGSIRSTRWWSWVRQSPGKGLEWIGEIYHSGSTNYNPSLKSRVTISLDKSRNHFSLRLNSVTAADTAVYYCARQDYGDSGDWYFDLWGKGTMVTVSS", "VL": "NFMLTQPHSVSESPGKTVTISCTRSSGSIASNSVQWYQQRPGSSPTTVIYEDNQRPSGVPDRFSGSIDSSSNSASLTVSGLKTEDEADYYCQSSDSSAVVFGSGTKLTVL", "notes": "as for B2"}, "B7": {"name": "PD1-17 IgG (antibody, V domains shown)", "VH": "B6 VH", "VL": "B6 VL", "notes": "also called anti-PD-1 antibody PD1-17"}, "B8": {"name": "PD1-F2 scFv (scFv, V domains shown)", "VH": "EVQLVQSGGGVVQPGRSLRLSCAASGFTFSSYWMSWVRQAPGKGLEWVSAISGSGGSTYYADSVKGRFTISRDNSKNTLYLQMNSLRAEDTAVYYCAKENWGSYFDLWGQGTTVTVSS", "VL": "DIVMTQSPSTLSASVGDRVTITCRASQGISSWLAWYQQKPGRAPKVLIYKASTLESGVPSRFSGSGSGTDFTLTISSLQPEDFATYYCQQSYSTPWTFGQGTKLEIK"}, "B9": {"name": "PD1-F2 IgG (antibody, V domains shown)", "VH": "B8 VH", "VL": "DIVMTQSPSTLSASVGDRVTITCRASQGISSWLAWYQQKPGRAPKVLIYKASTLESGVPSRFSGSGSGTDFTLTISSLQPEDFATYYCQQSYSTPWTFGQGTKLEIKR", "notes": "also called anti-mouse PD1 antibody PD1-F2"}}, "key": {"[1]": {"target": "T1, Human PD-1 fusion protein (human, UniProt Q15116 25-167)", "T1 construct": "also called Soluble PD-1 fusion protein; human PD-1/IgG chimera; not shown: fusion partner, called IgG in 'PD-1/IgG chimera'", "T1 sequence (Q15116 other isoform, or with tags, fused parts or gaps)": "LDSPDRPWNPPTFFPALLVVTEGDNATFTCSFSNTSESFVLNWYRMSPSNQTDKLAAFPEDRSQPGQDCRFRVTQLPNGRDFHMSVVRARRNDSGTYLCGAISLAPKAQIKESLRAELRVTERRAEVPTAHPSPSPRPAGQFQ", "experiment": "IgG; inhibition of biotinylated human PD-L1 fusion binding to plate-bound human PD-1 fusion", "method": "Crude scFv-containing periplasmic extracts were obtained by subjecting the bacterial pellets from the overnight induction to osmotic shock. Pellets were resuspended in 20% (w/v) sucrose, 50 mM Tris-HCl, pH 7.5, 1 mM EDTA and cooled on ice for 30 minutes. Cellular debris was removed by centrifugation, and the scFv was purified by chromatography and buffer-exchanged into PBS. […] Binding of biotinylated PD-L1 fusion protein was detected with AMDEX-alkaline phosphatase, and the signal generated was measured by reading the absorbance at 405 nm using a microtiter plate reader. […]"}, "[2]": {"target": "T1, Human PD-1 fusion protein", "experiment": "scFv; inhibition of biotinylated human PD-L1 fusion binding to plate-bound human PD-1 fusion", "method": "ScFv production was induced by addition of 1 mM IPTG to exponentially growing cultures and incubation overnight at 30° C. Crude scFv-containing periplasmic extracts were obtained by subjecting the bacterial pellets from the overnight induction to osmotic shock. Pellets were resuspended in 20% (w/v) sucrose, 50 mM Tris-HCl, pH 7.5, 1 mM EDTA and cooled on ice for 30 minutes. Cellular debris was removed by centrifugation, and the scFv was purified by chromatography and buffer-exchanged into PBS. Purified scFv's (PD1-17, PD1-28, PD1-33, and PD1-35) were tested for the ability to inhibit the binding of biotinylated human PD-L1 fusion protein to human PD-1 fusion protein immobilized on plastic in a 96 well microtiter plate assay. Binding of biotinylated PD-L1 fusion protein was detected with AMDEX-alkaline phosphatase, and the signal generated was measured by reading the absorbance at 405 nm using a microtiter plate reader. Data was expressed as a percentage of the total binding and a titration of scFv concentrations was tested to establish clone potency as calculated IC₅₀ values."}, "Murine PD-1 on cells [3]": {"target": "T2, Murine PD-1 on cells (mouse, UniProt Q02242 25-288)", "T2 construct": "also called Cells expressing murine PD-1", "T2 sequence": "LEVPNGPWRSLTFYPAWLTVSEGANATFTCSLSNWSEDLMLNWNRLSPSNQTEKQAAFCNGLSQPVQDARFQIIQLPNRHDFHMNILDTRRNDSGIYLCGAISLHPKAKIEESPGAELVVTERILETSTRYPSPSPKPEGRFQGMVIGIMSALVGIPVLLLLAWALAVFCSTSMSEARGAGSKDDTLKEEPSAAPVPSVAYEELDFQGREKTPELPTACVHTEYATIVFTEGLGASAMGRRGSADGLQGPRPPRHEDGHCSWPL", "experiment": "scFv; inhibition of biotinylated murine PD-L1 fusion binding to cells expressing murine PD-1", "method": "(§1) PD1-F2 scFv was produced and purified as described above. Cells expressing murine PD-1 were added at 10⁵ cells/well in a final volume of 100 μl to a poly-D-lysine-coated 96 well microtiter plate. Cells were centrifuged and washed twice in PBS, then blocked with 300 μl […] in PBS for 1 hour at room temperature. Blocked cells were washed three times in PBST, prior to addition of 25 μl/well of assay buffer (0.05% BSA, 0.05% Tween 20 in Dulbecco's PBS) or sample, followed by 25 μl of biotinylated murine PD-L1 fusion protein at 300 ng/ml. Binding of biotinylated PD-L1 fusion protein was detected with Amdex alkaline phosphatase and signals read as described above."}, "[4]": {"target": "T3, Murine PD-1 fusion protein (mouse, UniProt Q02242 25-167)", "T3 construct": "also called mouse PD-1 fusion protein; not shown: fusion partner not described", "T3 sequence": "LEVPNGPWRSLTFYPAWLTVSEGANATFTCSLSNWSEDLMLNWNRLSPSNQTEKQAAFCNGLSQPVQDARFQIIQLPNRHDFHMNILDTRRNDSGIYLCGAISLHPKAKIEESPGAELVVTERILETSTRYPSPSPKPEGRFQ", "experiment": "SPR (BIAcore 3000), murine PD-1 fusion immobilized on CM5 chip, antibody 7.81 to 125 nM in flow", "method": "The binding affinity of the anti-mouse PD1 antibody PD1-F2 was determined with a Surface Plasmon Resonance (SPR) system (BIAcore 3000) (Biacore, Piscataway, N.J.) using murine PD-1 fusion immobilized on a CM5 sensor chip. The concentration of PD1-F2 in the flow cell ranged from 7.81 to 125 nM, while the concentration of the anti-mouse PD1 antibody J43 (eBioscience, San Diego, Calif.) ranged from 25 nM to 500 nM."}, "Murine PD-1 on cells [5]": {"target": "T2, Murine PD-1 on cells", "experiment": "IgG; inhibition of biotinylated murine PD-L1 fusion binding to cells expressing murine PD-1", "method": "as §1, with “Cells” for “PD1-F2 scFv was produced and purified as described above. Cells”"}}}
{"binder": "B1", "values": [{"measurement": "IC50", "setting": "[1]", "value": 1.4, "unit": "nM"}]}
{"binder": "B2", "values": [{"measurement": "IC50", "setting": "[2]", "value": 560, "unit": "nM"}]}
{"binder": "B3", "values": [{"measurement": "IC50", "setting": "[1]", "value": 2.3, "unit": "nM"}]}
{"binder": "B4", "values": [{"measurement": "IC50", "setting": "[2]", "value": 74, "unit": "nM"}]}
{"binder": "B5", "values": [{"measurement": "IC50", "setting": "[1]", "value": 1.8, "unit": "nM"}]}
{"binder": "B6", "values": [{"measurement": "IC50", "setting": "[2]", "value": 726, "unit": "nM"}]}
{"binder": "B7", "values": [{"measurement": "IC50", "setting": "[1]", "value": 2.5, "unit": "nM"}]}
{"binder": "B8", "values": [{"measurement": "IC50", "setting": "Murine PD-1 on cells [3]", "value": 28, "unit": "nM"}]}
{"binder": "B9", "values": [{"measurement": "Ka", "setting": "[4]", "value": "1.5e+08", "unit": "M⁻¹"}, {"measurement": "Kd", "setting": "[4]", "value": 6.7, "unit": "nM"}, {"measurement": "IC50", "setting": "Murine PD-1 on cells [5]", "value": 1, "unit": "nM"}]}
